Measurements reported in a protein production outcome set (Wang et al. 2014).

Assay: label from the status in PepcDB records

Sequence | protein production
MVEGSQEAKVAEILQKMEEMIGEEPKPQKLFSKVAPEWLERQMDERQFVMSLESIPEKYKHLIMIAVAAAVGSKMCTEVFTKIAKRRGVSEREIGEAILVARFALASTIFATVTPALEWLEGGDEE | failed
MPTCAPAMVTTLYETPEHACLMFSDLVDDHDDQSVQTNQFLVVDHGHGALIDPGGNMTYNALYLAMNQYFPPKQLDYVLASHADPDIVASAGRWLTSSNCNILISRVWERFLPHFCNVGKTDGRILPIPDTGMAIPIGQSHLLAVPAHFLHSEGNFQFYDPVSRILFSGDLGASMVHAEIAAAPVEDFDAHIPLMAPFHRRYMSGNRVCRLWAEMVRGLEIEWIVPQHGRAFHGPAMVRRFIDWVETLTCGIDLMTQETFRLPALPRVAAGAPLRTPQP | failed
CRLLWDYVYQLLSDSRYENFIRWEDKESKIFRIVDPNGLARLWGNHKNRTNMTYEKMSRALRHYYKLNIIRKEPGQRLLFRFMKTPDEIMSGRTDRLEHLESQEL | not failed
MKCHRVNELIELLHPAWQKEPDLNLVQFLQNLAQEAGFEGQLNELTDDILIYHLKMRDSDKEQVIPGLKKDYEEDFKTALLRARGVIKDLEHHHHHH | not failed
MRLEKQLIKKMYYETFLMENETKPTLDVLGQAYVNEEKNEISDGSYIRFAQGEFYYRHQDFEAAIFKWEKVSNELAPWAQKNIADAYFELNQLSFAENIYTSITTDNKILMTEIRLQLLSLYIEQNNFDSAFGVIKEAVSLNPDYPNVTKIARSFYEEQQDFDSAVELAVNELIRIESYPWFEVLKGYIDKGFTKHISPDYFYDALATLNNVDQVQFTQMVSSLWNSYKNEKNYLLWLNTINEFFLHIEIHSSDIWNKVSALYEETYFALIQGQYTLRQLNDIIPNLLANWLKVVNPSYAVFPSAAVLAWDEIFPSKIDSANIEHAENLLSHSINHVNGLEYSLHLFESITQWAQKQNIEIGHRFKWLVDELADLRTNRILVTGTSGNGKTTFINSILGENILEKSISNVVVLKNDAHIEINAITDSAITTTEDVSDYHNMMSQHHQTYRDRACVEFKLPCRFLNENKLTFVVTPGFNRNNDTRDEIFEYLNSVDELLFVLNADSPFTDKERDILLSIQEHTPNLQIHFLLNKIDNIYSEAEVKRVLHDTATRINTYFPYARIFPYSSLYTSSQQLNDLTEFIHFNFNHKNIDAERTEKLLFFIRKTITYLLDKRVEKENNLVDAINWNEDMLVKLNGSINNLTTFEREKIHFITQSYRSMKTEITNDLTENIPKILKSCSNLISEESDFGHMDTELNKAMNERVHKYLEQTVLPNLALSMQNWIATSNNELLQSQTYLEELSEGLNSLFGENRIQLECDFKVLDDWRRDTDRMTTRIQMDEVNILRRFTPAQFLLKSAGKLFGVLPKNKSMLYNKYKQYVENEDYTEVTASIMKKFFLQFELFENTQERDINIFFRNPFNSLKQAVENTHLEIQEKQEILHKMKSNPEIYHDSIMLFELRLRQCEVILNIGNDNTYTDVALETSVE | failed
MSSKNTAEVILGGKVIKLGGYESEEYLQRVASYINNKITEFNKEESYRRMSAELRTDMMYLNIADDYFKAKKMADSLSLDIENKDKEIYDLKHELIAAQIKAESSAKEIKELKSEINKYQKNIVKLETELNDSKK | not failed
MADFQGETEMTAEVFDPRALRDAFGAFATGVTVVTASDAAGKPIGFTANSFTSVSLDPPLLLVCLAKSSRNYESMTSAGRFAINVLSETQKDVSNTFARPVEDRFAAVDWRLGRDGCPIFSDVAAWFECSMQDIIEAGDHVIIIGRVTAFENSGLNGLGYARGGYFTPRLAGKAVSAAVEGEIRLGAVLEQQGAVFLAGNETLSLPNCTVEGGDPARTLAAYLEQLTGLNVTIGFLYSVYEDKSDGRQNIVYHALASDGAPRQGRFLRPAELAAAKFSSSATADIINRFVLESSIGNFGIYFGDETGGTVHPIANKDAHS | not failed
MEPKPFFLCIIFLLFCSSSSEILQKQTYIVQLHPNSETAKTFASKFDWHLSFLQEAVLGVEEEEEEPSSRLLYSYGSAIEGFAAQLTESEAEILRYSPEVVAVRPDHVLQVQTTYSYKFLGLDGFGNSGVWSKSRFGQGTIIGVLDTGVWPESPSFDDTGMPSIPRKWKGICQEGESFSSSSCNRKLIGARFFIRGHRVANSPEESPNMPREYISARDSTGHGTHTASTVGGSSVSMANVLGNGAGVARGMAPGAHIAVYKVCWFNGCYSSDILAAIDVAIQDKVDVLSLSLGGFPIPLYDDTIAIGTFRAMERGISVICAAGNNGPIESSVANTAPWVSTIGAGTLDRRFPAVVRLANGKLLYGESLYPGKGIKNAGREVEVIYVTGGDKGSEFCLRGSLPREEIRGKMVICDRGVNGRSEKGEAVKEAGGVAMILANTEINQEEDSIDVHLLPATLIGYTESVLLKAYVNATVKPKARIIFGGTVIGRSRAPEVAQFSARGPSLANPSILKPDMIAPGVNIIAAWPQNLGPTGLPYDSRRVNFTVMSGTSMSCPHVSGITALIRSAYPNWSPAAIKSALMTTADLYDRQGKAIKDGNKPAGVFAIGAGHVNPQKAINPGLVYNIQPVDYITYLCTLGFTRSDILAITHKNVSCNGILRKNPGFSLNYPSIAVIFKRGKTTEMITRRVTNVGSPNSIYSVNVKAPEGIKVIVNPKRLVFKHVDQTLSYRVWFVLKKKNRGGKVASFAQGQLTWVNSHNLMQRVRSPISVTLKTN | failed
VPYAVEGRNYQGDLYLPCERIRAGLVLLPGAAEEGKDDPRLQAFAETLARARFAVLVPDLGGFRSLRAGSRDIGETADAILWLSSRPGLSPGGKCGVAALSYAGGPALLAALEPRAGQRVRFLVTVGGYYDLRNVLTFFTTGWYRDGDRWRRGTPNNYGKWVFVLANTDRIKNVRDRTALEKLARRKMDNPAARTDDLVRGLGPEGKSLYDFFANTDPRQVPALVERLPTPIRRDLAALDPSRRDLRGLTARLIIIHGRDDDIIPAAESEALARAVPRDRRGLFVLDGLMHVELKPKLTDAFRLWRAVSAILRER | failed
SPLGQIQLTIRHSSQRNKLIVVVHACRNLIAFSEDGSDPYVRMYLLPDKRRSGRRKTHVSKKTLNPVFDQSFDFSVSLPEVQRRTLDVAVKNSGGFLSKDKGLLGKVLVALASEELAKGWTQWYDLTED | not failed
MLTVIAEIRTRPGQHHRQAVLDQFAKIVPTVLKEEGCHGYAPMVDCAAGVSFQSMAPDSIVMIEQWESIAHLEAHLQTPHMKAYSEAVKGDVLEMNIRILQPGI | not failed
MITIENSKFKAGIAERGAELQSLVNKADNYEYVWTGDKTFWNRHAPILFPSIGKSNQDQYRLGAKTYPMSQHGFARDYDFDVSDKSDSAVTFTQHQNAETLKKFPFEYTLAVTYMLTDGGLSVHYTVTNDDSKSMPFALGFHPAFNVGLKADGSFDDYDLTVEPLNSPLQRFGIGPVPFRNGDVEDIPGAEGNRLPLTHDLLDGGLVILANSEIAKATLASPHHDHSITLDISDFPYLTIWSPEHKKAPFIAVEPFDGLPDQAGEPTDWYTKLGNTTLSAGANKQLALKVELHLEHHHHHH | failed
MIMLNKQGITISLCMIVRDEEETIARCLETVEKIVDEIIVVDTGSVDRTKEIVEKYTSNIYDFQWIDDFAAARNFSFSKATQEYILWLDADDVLLEDAQEALKLLKRELDPKIDAVSMPYHLAMDSNGKPLYCTKRNRLVKREKQFQWFGKVHEYLAISGEVFSSNVAITHKKEKKVTNRNLKIFQNTVAAGEELSPRDLFYYANESTDNQKYDDAVLLYETFLNQDEGWYEEKIYACGKLGDCYAKLGMWEKAIESCVKSFRYDVPRGENCTRIGYIYMEQEKYNEAIFWFKLATEVPMATESPFHSPASYTWLPYLQMCICYSRLGEQDKAYYYNELAASYVPNNAAIEYNRKYFRGVFDKPYKVLEHHHHHH | failed
MAAIDAALKAGEKILSIYEDPKSDFEIERKADNSPLTIADRKAHEAIVAILNETPFPVLSEEGKHMDYAVRRGWDTLWIVDPLDGTKEFIKRNGEFTVNIALVQNAVPVMGVIYVPVKKELYFAVEGTGAYKCSGIVGLEDEGVTLQQMIEKSERMPLADARDHFIAVASRSHLTPETETYIADLKKKHGNVELISSGSSIKICLVAEGKADVYPRFAPTMEWDTAAGHAIARAAGMEVYQAGKEEPLRYNKEDLLNPWFIVEAKRER | not failed
MNETINYDSLLILSVVAFFTPFLVSRLKRVNIPYQVGEIFIGILLGKSFLNIIKPDIWILFLSNLGLAYLMFLSGLAIDFDELKPKEGELLKDSKLFTSIKMFIVSIITAIILSFTLKFAGISEGYIFFALLFTAAAPGLLVPILKTKHIINSSYGQTLLVFGIITQLVSLIGVTFVASVAVNGITLKSFTFLIIFAVAIVVYFLSKIIFKVHDFSTIAFKNLHLSVRGAFVLVLVLVAVAEKVDSEIILGSFLAGMVFSLIVGKAKEEISHQLDVVGYGFLIPIFFIMVGVNVDLKAVVENPQSIAKIPLFILIFFLVKFIPSLLLKKKYGKRNSLAASMLLTAQLSLVIVGSQMALNLGYITAADYSAFVVTTVITCIFFPILFEKLITLNGDTNDTVEEDEKIIIREVLVSSQWYIGKALKDCKLPTGCRIFSMVRDDHEFMPNANTILEENDLVILAGVKHDVNETLNMLSTCDLTLPEE | failed
MLEDHHLYKAAIEHSPIGIGLCAPKGRFLDVNRALCALTGHEAQALRARDLFDLCHPDYAARTRERVEALLAGEQDALSLETRFVRPDGSTVWVQADLALARAEAGDGQDGHLIVQVQDVTARRLALESLQASEQRLAYVLDGAGLGTFDWSMRVRHVSFNRRTAEMLGYAHDELSTDPQDWFAMVHPQDAVLSVRRIYRHLRGDADSFEVEQRLRNQEGQWVWMSARGRVTQRDALGIAVRVSGTLQDVTRRRAMLDQAHHLALHDPLTDLPNARLLRDRLFVAIQAARRAGSLVAVVFVDLDRFKPVNDEYGHGVGDLVLKATAMRLRSGLRASDTVARLGGDEFVAVLTHCQTRDDVEQTVERLIEQLQAPFRVEGHVLSMGVSAGVALYPSDGRDAQTLIRCADAAMYEVKRAGGNDFGFHASLNYERLMSMRQRGPDPDGGADGR | failed
ERKRREKRLEETSSRLEALFENSPDMIDVLDADGTICEVNQRFCAELGYDESEVLGRSIWEFDLMFDAEDVQTQLSGFSVDERRKFEGLYERRDGSTMSVEVHLLRFNLEGEDRFLAISRDIT | not failed
MRKLNNHDVHKRYQDRLEEDVEFTINYELPLSCLWSTIKDFSSDFEEKTEAFFILFKELLRRGHLKLQRDGQIIGHTPEEWEQIFREVWPEYEIEPNPLPGYAPFDIGMWLTVEAPAYAVWIDPEDGSEYWAG | not failed
MSGLRAGHMPKGRLSGRPSFYFFSQAKLMSRQLDHGRETLMDIFHRHRLSNEGYAASVLERAMQTAEHRPEALVWKGMAALAHNPKLAFLFFINAAQLLPDRADVQALVGRALLAQGLAVLATRYLTQAWQKLPDDASLRMLLWQARSQSEPPATLRSMILAHLPEINAPKELAQVIKLLAAQADAPRRIGVVRYLETHREIQGWAIDLGNLQAPASLKIEADSVNVDAVASIPHPLLSAAGLCTTHGGLRVSVPNPKAQVHIRFADNTHLVGSPVFAMPSFVPPIEQGTQVEQKHVDVLIPVYNGLHETLECINSALEARKLNRTPHRLVVIEDATPVPALAKALKMLAGKGKITLVNNAVNMGFIRTMNRAMALSPGRDVVWLNADTRVQGNWLDRLRNIAHSSADIASVTPFTNNGELMSFPQSQVSHAMPNAREQAALDELAKHANISPVEIETGCGFCLYIKRAALNQVGYLDEVYLARGYGEETDWCLRARSFGWRHMGAPNVFVAHQGGISFGAEKTLRVAHNNAILRRRYPGASARYSAFCLRDPIKAARDALQRARLARFAQQSDEQKASQWPMEAGNTLHIHDGTGADSTLSLVWHRDSHRTWVTLKAPLAPLPLELDYEMPGEFSELVQNLATLPLKGVVLEHQVQCPSKLCDLPSLLNIPYTIVHRDGHLQGLDATYDWQRLANRAESVVLPWQSWHSAFAEAFPQANLVIQPCAELPTPATSQPNILLIGDALDDTDIIQTWVRLGRRITRERLPLTLLVKQDTPWLKTLSATGAVQALPQVTGFSLPEIAKATGCDAVVSLAASPGEKWLAPELASQLDLPLYTRCHSLGTEAGATCVTQLPFSLSQA | failed
MAEAANKNKPHKLIIDNRNSMSMTGVTKVISIDTDLVLLVTEQGKLKITGKNMQASTLDLDKGILELTGNFNTMVYSGEKEGALSLKSLFK | failed
